This is an account of results in patent US5827710, “DNA encoding the subunit of avian lactate dehydrogenase” (Oriental Yeast Co., Ltd., dated 1998).

This data set concerns the molecule itself. Kind of data set: gel filtration column chromatography (SMART system) of the purified recombinant protein: about 147,000 found, against about 36,000 calculated for each subunit. The source says: 3) Determination of the molecular weight of the recombinant chicken LDH-B₄ protein As a result of gel filtration column chromatography analysis of the purified sample by a SMART system (made by Pharmacia), the molecular weight of the purified recombinant chicken LDH-B₄ protein was about 147,000 (FIG. 10). It is presumed that the subunits B of chicken LDH are combined to form a tetramer (theoretical molecular weight of about 140,000) because the molecular weight of each subunit B of chicken LDH is calculated at about 36,000 from its amino acid sequence.

B1: type B subunit of chicken lactate dehydrogenase (recombinant, expressed in Saccharomyces cerevisiae from YRp1G-cLD-B) (enzyme)
chain: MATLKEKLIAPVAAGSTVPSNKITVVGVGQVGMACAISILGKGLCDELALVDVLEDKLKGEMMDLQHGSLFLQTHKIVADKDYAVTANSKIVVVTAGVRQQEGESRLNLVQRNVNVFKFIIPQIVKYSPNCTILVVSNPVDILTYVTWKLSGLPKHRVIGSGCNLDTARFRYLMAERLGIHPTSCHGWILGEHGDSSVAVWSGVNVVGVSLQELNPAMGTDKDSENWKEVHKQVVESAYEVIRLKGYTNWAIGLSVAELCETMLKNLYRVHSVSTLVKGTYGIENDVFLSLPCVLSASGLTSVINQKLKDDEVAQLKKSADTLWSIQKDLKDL
As to B1, the binding result is “binds”.
